Assay [1] has as its target Hsp70 nucleotide-binding domain (Hsp70NBD). Description: ITC. On the technique in general: ITC needs no label: the signal is the heat of the interaction.
The target of assay [2] is Rpn1, human, recombinant full-length (human) (UniProt Q13200). The assay is described as follows: ITC.
In assay [3] the target is Rpn1, human, recombinant full-length (human, UniProt Q13200 1-908). The assay is described as follows: cross-linking.
Sequence of Rpn1, human, recombinant full-length (Q13200 whole entry): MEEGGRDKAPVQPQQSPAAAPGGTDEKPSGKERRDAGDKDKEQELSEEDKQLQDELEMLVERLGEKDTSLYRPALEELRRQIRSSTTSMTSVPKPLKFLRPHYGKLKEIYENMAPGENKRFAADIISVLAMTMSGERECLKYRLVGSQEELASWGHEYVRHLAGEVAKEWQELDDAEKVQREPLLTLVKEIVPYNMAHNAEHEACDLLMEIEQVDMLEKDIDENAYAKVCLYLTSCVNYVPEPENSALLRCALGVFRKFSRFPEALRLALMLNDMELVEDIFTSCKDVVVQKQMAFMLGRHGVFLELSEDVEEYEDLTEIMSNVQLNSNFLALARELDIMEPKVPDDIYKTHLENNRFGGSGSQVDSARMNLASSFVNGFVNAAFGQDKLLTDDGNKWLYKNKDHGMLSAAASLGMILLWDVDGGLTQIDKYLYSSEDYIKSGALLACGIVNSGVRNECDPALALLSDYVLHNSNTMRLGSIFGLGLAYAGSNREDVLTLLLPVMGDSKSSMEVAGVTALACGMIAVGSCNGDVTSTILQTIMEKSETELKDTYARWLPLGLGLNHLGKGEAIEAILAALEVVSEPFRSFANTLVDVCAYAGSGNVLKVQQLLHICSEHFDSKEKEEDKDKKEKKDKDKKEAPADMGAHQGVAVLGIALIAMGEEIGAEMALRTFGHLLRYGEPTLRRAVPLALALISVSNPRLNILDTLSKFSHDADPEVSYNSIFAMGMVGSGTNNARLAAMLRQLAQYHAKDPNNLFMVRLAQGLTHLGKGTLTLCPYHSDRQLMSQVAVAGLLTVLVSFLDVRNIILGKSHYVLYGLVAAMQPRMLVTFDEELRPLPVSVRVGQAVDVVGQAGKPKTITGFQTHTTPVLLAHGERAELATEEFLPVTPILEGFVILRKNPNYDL

Sequence of Rpn1, human, recombinant full-length (human) (Q13200 whole entry): as above

Turning to “Bcl-2-associated anthanogene 1 (Bag1), full-length (natural protein)”, the Kd (in general, the equilibrium constant for the complex coming apart) in assay [1] came to 0.05 µM; in assay [2], 0.5 µM.

B1: Rpt2 of the ATPase ring isolated from Saccharomyces cerevisiae (natural protein)
chain: MGQGVSSGQDKKKKKGSNQKPKYEPPVQSKFGRKKRKGGPATAEKLPNIYPSTRCKLKLLRMERIKDHLLLEEEFVSNSEILKPFEKKQEEEKKQLEEIRGNPLSIGTLEEIIDDDHAIVTSPTMPDYYVSILSFVDKELLEPGCSVLLHHKTMSIVGVLQDDADPMVSVMKMDKSPTESYSDIGGLESQIQEIKESVELPLTHPELYEEMGIKPPKGVILYGAPGTGKTLLAKAVANQTSATFLRIVGSELIQKYLGDGPRLCRQIFKVAGENAPSIVFIDEIDAIGTKRYDSNSGGEREIQRTMLELLNQLDGFDDRGDVKVIMATNKIETLDPALIRPGRIDRKILFENPDLSTKKKILGIHTSKMNLSEDVNLETLVTTKDDLSGADIQAMCTEAGLLALRERRMQVTAEDFKQAKERVMKNKVEENLEGLYL
On to B1, for which the binding result in assay [3] is listed as “binds”.
